A word on the stoichiometry N: it is a count of units in the complex or per binding partner.

The values that follow come from publication PMC4252038, “H2O2 Inhibits ABA-Signaling Protein Phosphatase HAB1” (PLoS ONE, 2014).

The data set concerns the molecule itself. Put plainly: SEC; size exclusion chromatography of His6-MBP-HAB1(171–511 aa) treated with 0.3 mM H2O2 for 30 min at 30°C; monomer to disulfide-linked dimer. (In general: Size exclusion chromatography separates by hydrodynamic size, large species first.)

B1: His6-MBP-HAB1(171–511 aa) wild type (domain or fragment, Arabidopsis thaliana, UniProt Q9CAJ0 171-511, looked up)
chain: NSNHLVKGRSVYELDCIPLWGTVSIQGNRSEMEDAFAVSPHFLKLPIKMLMGDHEGMSPSLTHLTGHFFGVYDGHGGHKVADYCRDRLHFALAEEIERIKDELCKRNTGEGRQVQWDKVFTSCFLTVDGEIEGKIGRAVVGSSDKVLEAVASETVGSTAVVALVCSSHIVVSNCGDSRAVLFRGKEAMPLSVDHKPDREDEYARIENAGGKVIQWQGARVFGVLAMSRSIGDRYLKPYVIPEPEVTFMPRSREDECLILASDGLWDVMNNQEVCEIARRRILMWHKKNGAPPLAERGKGIDPACQAAADYLSMLALQKGSKDNISIIVIDLKAQRKFKTRT
notes: HAB1 protein phosphatase 2C, Arabidopsis thaliana, phosphatase domain, residues 171-511; In some assays the protein was treated with 0.3 mM or 1 mM H2O2 (30 min, 30°C) beforehand; the treatment is told by the assay; After 0.3 mM H2O2 it is a mixture of monomers and disulfide-linked dimers (C186, C274), after 1 mM higher oligomers; also called HAB1 phosphatase domain; wild type HAB1; source: E. …
As for B1, the “stoichiometry N” value came to 2.
